US20180244762A1 (KODIAK SCIENCES, published 2018)

B1: OG1448 (TAF443 conjugated to the OG1802 biopolymer) (other)
heavy: LVVTPPGPELVLNVSSTFVLTCSGSAPVVWERMSQEPPQEMAKAQDGTFSSVLTLTNLTGLDTGEYFCTHNDSRGLETDERKRLYIFVPDPTVGFLPNDAEELFIFLTEITEITIPCRVTDPQLVVTLHEKKGDVALPVPYDHQRGFSGIFEDRSYICKTTIGDREVDSDAYYVYRLQVSSINVSVNAVQTVVRQGENITLMCIVIGNEVVNFEWTYPRKESGRLVEPVTDFLLDMPYHIRSILHIPSAELEDSGTYTCNVTESVNDHQDEKAINITVVESGGGGGSGGGGSEVQLVESGGGLVQPGGSLRLSCAASGYDFTHYGMNWVRQAPGKGLEWVGWINTYTGEPTYAADFKRRFTFSLDTSKSTAYLQMNSLRAEDTAVYYCAKYPYYYGTSHWYFDVWGQGTLVTVSSASTKGPSVFPLAPSSKSTSGGTAALGCLVKDYFPEPVTVSWNSGALTSGVHTFPAVLQSSGLYSLSSVVTVPSSSLGTQTYICNVNHKPSNTKVDKKVEPKSCDKTHTCPPCPAPEAAGAPSVFLFPPKPKDTLMISRTPEVTCVVVDVSHEDPEVKFNWYVDGVEVHNAKTKPREEQYNSTYRVVSVLTVLHQDWLNGKEYKCKVSNKALPAPIEKTISKAKGQPREPQVYTLPPSREEMTKNQVSLTCLVKGFYPSDIAVEWESNGQPENNYKTTPPVLDSDGSFFLYSKLTVDKSRWQQGNVFSCSVMHEALHNHYTQKSLSCSPGK
light: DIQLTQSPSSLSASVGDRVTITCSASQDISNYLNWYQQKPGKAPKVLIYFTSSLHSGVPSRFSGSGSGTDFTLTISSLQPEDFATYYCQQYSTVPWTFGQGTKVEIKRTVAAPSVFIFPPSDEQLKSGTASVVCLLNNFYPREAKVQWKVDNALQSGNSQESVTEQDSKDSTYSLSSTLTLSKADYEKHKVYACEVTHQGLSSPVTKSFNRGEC
modifications: OG1802 biopolymer (about 750 kDa, 9-arm HEMA-PC, maleimide) on the cysteine 443 residue (L443C, EU numbering)
notes: also called TAF443 polymer conjugate
B2: TAF443-3A250K (other)
heavy: B1 heavy
light: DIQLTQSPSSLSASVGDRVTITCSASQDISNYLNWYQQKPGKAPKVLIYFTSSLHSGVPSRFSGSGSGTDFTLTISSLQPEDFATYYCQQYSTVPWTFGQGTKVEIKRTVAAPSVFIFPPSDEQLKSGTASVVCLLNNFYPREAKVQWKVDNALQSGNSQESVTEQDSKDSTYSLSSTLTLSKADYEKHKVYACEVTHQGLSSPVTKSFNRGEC
modifications: polymer conjugate, label 3A250K; polymer and attachment site not described for this conjugate
notes: also called R3644-3A

Columns and labels:
[1] = biological target: T1, recombinant human PDGF-BB (human, UniProt P01127 82-190); assay: cell-based or functional assay
T1 sequence (P01127 82-190): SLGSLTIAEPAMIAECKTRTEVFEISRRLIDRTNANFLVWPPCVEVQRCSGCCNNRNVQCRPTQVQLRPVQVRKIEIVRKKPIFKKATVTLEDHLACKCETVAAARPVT

[2] = biological target: T1, recombinant human PDGF-BB; assay: optical biosensor (Proteon XPR36 / Biacore 2000), binder amine-coupled, rhPDGF-BB injected, 25 C
Description: Binding studies were performed at 25° C. and 37° C. using BioRad Proteon XPR36 and Biacore 2000 optical biosensors equipped with GLM (Proteon) and CM4 (Biacore) sensor chips and equilibrated with running buffer (10 m/M HEPES, 150 mM NaCl, 0.005% Teen-20, 0.2 mg/ml BSA).

[3] = biological target: T1, recombinant human PDGF-BB; assay: competitive ELISA: binder preincubated with 0.2 nM rhPDGF-BB, competitor immobilized PDGFR/Fc
[4] = biological target: T1, recombinant human PDGF-BB; assay: competitive ELISA: OG1448 preincubated with 0.2 nM PDGF-BB plus rhVEGFA-165 at 0.2, 0.6 and 1.0 nM, competitor immobilized PDGFRb/Fc; in the presence of rhVEGFA-165 (0.2, 0.6 and 1.0 nM)
[5] = biological target: T1, recombinant human PDGF-BB; assay: SPR (Biacore T200, 25 C), binder captured by anti-human IgG, PDGF-BB as analyte, run B
Description: (§1) Each PDGF/VEGF variant was captured to a level of approximately 150 RUs. The running and sample buffer for the PDGF analysis was HBS-EP+300mM NaCl (10 mM 4-(2-hydroxyethyl)-1-piperazineethanesulfonic acid (HEPES) pH 7.4, 300 mM NaCl, 3mM ethylenediaminetetraacetic acid (EDTA), 0.05% (v/v) Tween-20). […] The surface was then regenerated with a 30 second pulse of 3M MgCl₂, a 30 second pulse of an ionic regeneration buffer (0.46M KSCN, 1.83 M MgCl2, 0.92 M urea, and 1.83 M guanidine-HCI pH7.4, Andersson et al., Analytical Chemistry, 1999) and then equilibrated with a 30 second pulse of HBS-EP+ 300 mM NaCl running buffer.
(§2) All SPR assays were performed at 25° C. with a data collection rate of1Hz using a Biacore T200 instrument (GE Healthcare). The resulting PDGP and VEGP sensorgrams were double referenced using both a control surface and buffer injections. The rate constants were determined by fitting the data to a 1:1 Langmuir model with Biacore T200 evaluation software v2.0 and the equation […].

[6] = biological target: T1, recombinant human PDGF-BB; assay: SPR (Biacore T200, 25 C), binder captured by anti-human IgG, PDGF-BB as analyte, run C
Description: as §1, §2

[7] = biological target: T1, recombinant human PDGF-BB; assay: SPR (Biacore T200, 25 C), binder captured by anti-human IgG, PDGF-BB as analyte, average of the runs
Description: as §1, §2

[8] = biological target: T1, recombinant human PDGF-BB; assay: SPR (Biacore T200, 25 C), binder captured by anti-human IgG, PDGF-BB as analyte, run A
Description: as §1, §2

Binder	Inhibition of PDGF induced proliferation of HPVPs, IC50 [1] [pM]	Kd [2] [pM]	IC50 [3] [pM]	IC50 [4] [pM]	Kd [5] [pM]	koff [5] [s⁻¹]	kon [5] [M⁻¹ s⁻¹]	t½ [5] [h]	Kd [6] [pM]	koff [6] [s⁻¹]	kon [6] [M⁻¹ s⁻¹]	t½ [6] [h]	Kd [7] [pM]	Kd [8] [pM]	koff [8] [s⁻¹]	kon [8] [M⁻¹ s⁻¹]	t½ [8] [h]
B1	2900	17	54	25													
B2					1.73	4.96e-05	2.86e+07	3.88	1.6	7.52e-05	4.71e+07	2.56	1.5	1.03	5.92e-05	5.76e+07	3.25
